Publication PMC6151538 (2017)
One block for each binder: values may come before it.

Experiments:
fetuin = target: T1, fetuin (Bos taurus, UniProt P12763); assay: solid-phase assay, Scatchard analysis
T1 chain: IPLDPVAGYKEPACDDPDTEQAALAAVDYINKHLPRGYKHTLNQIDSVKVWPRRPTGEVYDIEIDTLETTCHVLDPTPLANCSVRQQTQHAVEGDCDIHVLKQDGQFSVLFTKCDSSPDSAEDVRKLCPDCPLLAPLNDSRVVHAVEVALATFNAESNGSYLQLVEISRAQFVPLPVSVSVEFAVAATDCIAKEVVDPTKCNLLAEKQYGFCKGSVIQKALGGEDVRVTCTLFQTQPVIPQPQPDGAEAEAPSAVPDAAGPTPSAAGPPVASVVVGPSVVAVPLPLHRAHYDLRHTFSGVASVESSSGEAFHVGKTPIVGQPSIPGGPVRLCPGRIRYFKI

asialofetuin = target: T2, asialofetuin (Bos taurus, UniProt P12763); assay: solid-phase assay, Scatchard analysis
T2 chain: T1 chain

Kd (fetuin): 93 nM
B1: Gal-8 (NN) N-terminal CRD tandem homodimer (NN, no linker) (protein)
chain: MMLSLNNLQNIIYNPVIPFVGTIPDQLDPGTLIVIRGHVPSDADRFQVDLQNGSSMKPRADVAFHFNPRFKRAGCIVCNTLINEKWGREEITYDTPFKREKSFEIVIMVLKDKFQVAVNGKHTLLYGHRIGPEKIDTLGIYGKVNIHSIGFSFSS
modifications: engineered linker-free tandem of two Gal-8N CRDs, biotinylated; fetuin with sialylated N-glycans

Kd (asialofetuin): 148 nM
B2: Gal-8 (NN) N-terminal CRD tandem homodimer (NN, no linker) (protein)
chain: B1 chain
modifications: engineered linker-free tandem of two Gal-8N CRDs, biotinylated; fetuin chemically desialylated (N-glycans)
